# Measurements published in IntAct's records for PubMed 25201882.
# What was measured:
# sc16a_human SEC16A = sc16a_human SEC16A (UniProt O15027)
# sc16a_mouse Sec16a = sc16a_mouse Sec16a (UniProt E9QAT4)
# Chain of UniProt E9QAT4 (E9QAT4 whole entry): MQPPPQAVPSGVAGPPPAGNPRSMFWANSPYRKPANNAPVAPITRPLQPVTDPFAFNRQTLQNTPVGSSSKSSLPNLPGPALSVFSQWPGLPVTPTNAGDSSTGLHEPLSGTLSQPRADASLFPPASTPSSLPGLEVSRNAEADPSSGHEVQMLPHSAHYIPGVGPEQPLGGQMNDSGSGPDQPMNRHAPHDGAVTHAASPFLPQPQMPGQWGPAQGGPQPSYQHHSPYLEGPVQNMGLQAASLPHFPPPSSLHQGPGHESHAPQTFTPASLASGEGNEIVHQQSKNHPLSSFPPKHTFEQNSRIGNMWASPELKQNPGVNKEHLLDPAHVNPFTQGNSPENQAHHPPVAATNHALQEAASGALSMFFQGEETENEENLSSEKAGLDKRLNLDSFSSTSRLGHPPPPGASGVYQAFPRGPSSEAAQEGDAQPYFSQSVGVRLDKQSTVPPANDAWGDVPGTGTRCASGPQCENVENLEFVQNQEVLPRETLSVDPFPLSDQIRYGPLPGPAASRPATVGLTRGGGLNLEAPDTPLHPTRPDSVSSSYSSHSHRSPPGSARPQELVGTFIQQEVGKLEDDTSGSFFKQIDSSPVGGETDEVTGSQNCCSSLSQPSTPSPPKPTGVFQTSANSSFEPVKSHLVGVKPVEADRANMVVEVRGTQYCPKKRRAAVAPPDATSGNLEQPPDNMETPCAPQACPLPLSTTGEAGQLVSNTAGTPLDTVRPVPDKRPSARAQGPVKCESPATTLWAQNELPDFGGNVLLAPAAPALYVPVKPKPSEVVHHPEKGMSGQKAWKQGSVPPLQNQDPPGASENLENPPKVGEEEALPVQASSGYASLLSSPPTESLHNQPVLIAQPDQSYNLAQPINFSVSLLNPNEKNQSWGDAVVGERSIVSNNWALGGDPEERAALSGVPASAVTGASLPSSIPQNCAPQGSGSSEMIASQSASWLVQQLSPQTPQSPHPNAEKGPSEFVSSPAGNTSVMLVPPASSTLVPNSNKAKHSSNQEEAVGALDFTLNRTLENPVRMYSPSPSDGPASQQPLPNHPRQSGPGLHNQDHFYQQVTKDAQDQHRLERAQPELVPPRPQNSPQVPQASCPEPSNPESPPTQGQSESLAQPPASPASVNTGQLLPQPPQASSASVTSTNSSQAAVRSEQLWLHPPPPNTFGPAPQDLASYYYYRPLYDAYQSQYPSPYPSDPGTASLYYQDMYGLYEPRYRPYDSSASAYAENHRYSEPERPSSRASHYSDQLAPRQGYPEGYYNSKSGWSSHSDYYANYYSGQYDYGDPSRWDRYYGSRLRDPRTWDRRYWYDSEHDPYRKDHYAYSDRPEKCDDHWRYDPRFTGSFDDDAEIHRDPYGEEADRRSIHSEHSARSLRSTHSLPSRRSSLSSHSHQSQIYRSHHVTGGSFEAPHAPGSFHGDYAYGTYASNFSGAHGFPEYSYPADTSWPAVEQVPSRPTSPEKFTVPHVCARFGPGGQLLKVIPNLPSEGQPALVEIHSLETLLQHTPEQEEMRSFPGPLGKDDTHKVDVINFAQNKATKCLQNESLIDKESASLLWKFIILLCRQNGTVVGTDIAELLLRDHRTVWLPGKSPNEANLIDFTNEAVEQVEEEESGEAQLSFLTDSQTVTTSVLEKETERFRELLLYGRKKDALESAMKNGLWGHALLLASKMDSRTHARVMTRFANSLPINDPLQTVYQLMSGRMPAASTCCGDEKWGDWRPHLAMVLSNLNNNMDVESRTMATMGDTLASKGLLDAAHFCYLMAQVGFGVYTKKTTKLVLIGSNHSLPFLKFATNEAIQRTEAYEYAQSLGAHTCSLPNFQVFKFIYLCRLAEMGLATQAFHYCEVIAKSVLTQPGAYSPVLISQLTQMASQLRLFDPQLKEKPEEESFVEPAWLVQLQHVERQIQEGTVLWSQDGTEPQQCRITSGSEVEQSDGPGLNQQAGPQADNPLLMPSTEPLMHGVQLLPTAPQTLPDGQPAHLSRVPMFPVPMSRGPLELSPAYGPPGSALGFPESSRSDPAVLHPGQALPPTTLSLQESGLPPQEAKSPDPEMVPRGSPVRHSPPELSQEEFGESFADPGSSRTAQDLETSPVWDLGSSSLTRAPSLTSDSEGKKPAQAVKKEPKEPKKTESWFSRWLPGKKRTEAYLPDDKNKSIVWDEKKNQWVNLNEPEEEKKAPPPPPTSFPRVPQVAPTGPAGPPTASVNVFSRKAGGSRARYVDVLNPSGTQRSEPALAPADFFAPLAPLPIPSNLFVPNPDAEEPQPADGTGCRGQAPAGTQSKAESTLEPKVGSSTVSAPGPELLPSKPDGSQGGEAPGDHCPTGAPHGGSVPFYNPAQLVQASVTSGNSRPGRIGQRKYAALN
# Chain of UniProt O15027 (O15027 whole entry): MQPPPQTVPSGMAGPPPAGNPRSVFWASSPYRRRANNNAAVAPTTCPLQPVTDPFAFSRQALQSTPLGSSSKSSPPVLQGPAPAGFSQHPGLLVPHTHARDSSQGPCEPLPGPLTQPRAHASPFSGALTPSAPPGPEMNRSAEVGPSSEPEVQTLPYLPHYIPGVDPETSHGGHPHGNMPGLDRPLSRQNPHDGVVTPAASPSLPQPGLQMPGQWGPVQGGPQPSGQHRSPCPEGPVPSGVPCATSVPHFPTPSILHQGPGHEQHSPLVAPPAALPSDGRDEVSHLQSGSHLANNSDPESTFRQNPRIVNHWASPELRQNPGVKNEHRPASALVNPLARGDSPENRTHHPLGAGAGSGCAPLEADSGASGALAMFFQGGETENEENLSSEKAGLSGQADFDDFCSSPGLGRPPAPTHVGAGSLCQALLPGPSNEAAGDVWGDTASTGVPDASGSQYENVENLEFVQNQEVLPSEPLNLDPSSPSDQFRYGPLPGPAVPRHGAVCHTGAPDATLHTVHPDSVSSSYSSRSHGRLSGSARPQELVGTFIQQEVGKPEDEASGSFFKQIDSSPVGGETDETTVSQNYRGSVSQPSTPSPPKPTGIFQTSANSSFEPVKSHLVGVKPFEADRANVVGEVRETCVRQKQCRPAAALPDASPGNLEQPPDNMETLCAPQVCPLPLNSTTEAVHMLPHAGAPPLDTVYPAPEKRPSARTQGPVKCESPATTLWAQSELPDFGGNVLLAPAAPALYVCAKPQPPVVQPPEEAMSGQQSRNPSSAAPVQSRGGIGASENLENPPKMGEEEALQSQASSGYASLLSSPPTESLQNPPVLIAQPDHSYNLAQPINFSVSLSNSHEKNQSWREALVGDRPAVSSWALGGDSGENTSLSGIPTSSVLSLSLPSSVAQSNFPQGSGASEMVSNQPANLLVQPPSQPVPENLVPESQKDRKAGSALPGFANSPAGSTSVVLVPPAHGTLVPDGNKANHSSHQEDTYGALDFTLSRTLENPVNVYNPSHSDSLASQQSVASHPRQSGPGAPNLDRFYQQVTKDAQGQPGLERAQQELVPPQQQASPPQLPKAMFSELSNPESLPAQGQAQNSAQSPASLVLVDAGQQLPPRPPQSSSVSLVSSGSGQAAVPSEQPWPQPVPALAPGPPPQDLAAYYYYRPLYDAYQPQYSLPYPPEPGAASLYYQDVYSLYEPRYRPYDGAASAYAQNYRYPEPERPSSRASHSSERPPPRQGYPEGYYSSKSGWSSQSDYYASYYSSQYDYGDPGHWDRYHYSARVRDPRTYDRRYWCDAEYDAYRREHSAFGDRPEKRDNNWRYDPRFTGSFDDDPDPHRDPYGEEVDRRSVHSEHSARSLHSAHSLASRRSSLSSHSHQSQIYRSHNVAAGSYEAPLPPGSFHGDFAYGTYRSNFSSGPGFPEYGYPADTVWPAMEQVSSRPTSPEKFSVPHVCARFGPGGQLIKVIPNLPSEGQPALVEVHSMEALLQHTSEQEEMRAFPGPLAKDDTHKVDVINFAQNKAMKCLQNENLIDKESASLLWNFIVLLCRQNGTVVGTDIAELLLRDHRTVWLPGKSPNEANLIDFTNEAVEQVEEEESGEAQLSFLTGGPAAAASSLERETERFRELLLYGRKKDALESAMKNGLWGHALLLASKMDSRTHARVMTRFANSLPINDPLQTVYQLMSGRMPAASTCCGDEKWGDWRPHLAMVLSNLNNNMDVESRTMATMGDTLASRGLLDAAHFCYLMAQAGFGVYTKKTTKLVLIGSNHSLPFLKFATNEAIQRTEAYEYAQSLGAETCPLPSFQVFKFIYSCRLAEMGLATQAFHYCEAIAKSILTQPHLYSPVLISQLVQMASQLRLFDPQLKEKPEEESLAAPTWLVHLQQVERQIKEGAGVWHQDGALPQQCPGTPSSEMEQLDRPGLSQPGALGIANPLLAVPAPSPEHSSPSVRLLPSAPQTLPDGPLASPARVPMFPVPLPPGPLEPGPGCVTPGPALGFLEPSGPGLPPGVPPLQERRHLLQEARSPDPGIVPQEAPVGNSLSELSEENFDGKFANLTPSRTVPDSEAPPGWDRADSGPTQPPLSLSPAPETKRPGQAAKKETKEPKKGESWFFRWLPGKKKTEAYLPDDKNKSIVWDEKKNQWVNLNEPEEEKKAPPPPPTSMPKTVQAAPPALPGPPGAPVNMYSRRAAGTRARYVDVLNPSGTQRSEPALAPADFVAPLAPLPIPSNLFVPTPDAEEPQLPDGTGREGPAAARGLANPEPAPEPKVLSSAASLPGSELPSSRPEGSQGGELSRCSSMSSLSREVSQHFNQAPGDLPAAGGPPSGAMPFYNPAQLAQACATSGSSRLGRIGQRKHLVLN
effect of a mutation on the interaction (sc16a_human SEC16A),effect of a mutation on the interaction (sc16a_mouse Sec16a),Substance
decreasing interaction strength,disrupting interaction strength,"Leucine-rich repeat serine/threonine-protein kinase 2 (Homo sapiens), Q5S007 R1441C"
disrupting interaction strength,disrupting interaction strength,"Leucine-rich repeat serine/threonine-protein kinase 2 (Homo sapiens), Q5S007 K1347A"
